Measurements from patent US20260265800A1, “NEW FUCOSYLTRANSFERASES FOR IN VIVO SYNTHESIS OF LNFP-III” (DSM IP Assets B.V., priority 2022, published 2026).

B1: Plac_wt: promoter sequence, SEQ ID NO: 37 (nucleic acid, listed as Escherichia coli)
DNA: TGTGAGTTAGCTCACTCATTAGGCACCCCAGGCTTTACACTTTATGCTTCCGGCTCGTATGTTGTGTGGAATTGTGAGCGGATAACAATTTCACACAGGAAACAGCT
modifications: expressed or natural sequence
B2: PglpF: promoter sequence, SEQ ID NO: 28; positive reference of the LacZ assay (nucleic acid, listed as Escherichia coli)
DNA: GCGGCACGCCTTGCAGATTACGGTTTGCCACACTTTTCATCCTTCTCCTGGTGACATAATCCACATCAATCGAAAATGTTAATAAATTTGTTGCGCGAATGATCTAACAAACATGCATCATGTACAATCAGATGGAATAAATGGCGCGATAACGCTCATTTTATGACGAGGCACACACATTTTAAGTTCGATATTTCTCGTTTTTGCTCGTTAACGATAAGTTTACAGCATGCCTACAAGCATCGTGGAGGTCCGTGACTTTCACGCATACAACAAACATTAACCAAGGAGGAAACAGCT

How the values were obtained:
β-galactosidase activity [1] = assay: LacZ assay of promoter strength; type: cell-based; details: LacZ assay at 30° C.; Plac induced with IPTG
Description: Increasing the promoter strength driving the expression of the desired enzyme may be one way of doing this. The strength of a promoter can be assessed using a lacZ enzyme assay where β-galactosidase activity is assayed as described previously (see e.g., Miller J. H. Experiments in molecular genetics, Cold spring Harbor Laboratory Press, NY, 1972). Briefly the cells are diluted in Z-buffer and permeabilized with sodium dodecyl sulfate (0.1%) and chloroform. The LacZ assay is performed at 30° C. Samples are preheated, the assay initiated by addition of 200 μl ortho-nitro-phenyl-β-galactosidase (4 mg/ml) and stopped by addition of 500 μl of 1 M Na2CO3 when the sample had turned slightly yellow. The release of ortho-nitrophenol is subsequently determined as the change in optical density at 420 nm. The specific activities are reported in Miller Units (MU) [A420/(min*ml*A600)]. A regulatory element with an activity above 10,000 MU is considered strong and a regulatory element with an activity below 3,000 MU is considered weak, what is in between has intermediate strength. An example of a strong regulatory element is the PglpF promoter with an activity of approximately 14.000 MU and an example of a weak promoter is Plac which when induced with IPTG has an activity of approximately 2300 MU. […]

β-galactosidase activity [2] = details: LacZ assay, cited from earlier work; for % Activity relative to PglpF: PglpF as positive reference, a range indicates results from multiple assays

Molecule	promoter activity in Miller Units (β-galactosidase activity [1])	% Activity relative to PglpF (β-galactosidase activity [2])	Strength (β-galactosidase activity [2])
B1	approximately 2300 MU	15-28%	low (a regulatory element with an activity below 3,000 MU is considered weak)
B2	approximately 14.000 MU	100%	high (A regulatory element with an activity above 10,000 MU is considered strong)
